This is an account of results in US20040048305.

The target in data set [1] is T1, peptide 3: Biotin-KKRFSFKKSFKLSGFSFK-COOH.
T1 chain: KKRFSFKKSFKLSGFSFK

Data set [2] has as its target T2, bovine myelin basic protein (biotinylated MBP, Amersham Biosciences), P02687.
T2 chain: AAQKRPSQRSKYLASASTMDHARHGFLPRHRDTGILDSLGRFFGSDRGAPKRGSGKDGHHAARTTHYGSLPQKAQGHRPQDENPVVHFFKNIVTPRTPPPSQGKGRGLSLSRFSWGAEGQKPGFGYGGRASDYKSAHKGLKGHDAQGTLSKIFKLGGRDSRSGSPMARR

B1: GST-14171 fusion protein (glutathione S-transferase fused to the N-terminus of a partial 14171 molecule, amino acid residues 1-350 of SEQ ID NO:2) (protein)
chain: MEGDGGTPWALALLRTFDAGEFTGWEKVGSGGFGQVYKVRHVHWKTWLAIKCSPSLHVDDRERMELLEEAKKMEMAKFRYILPVYGICREPVGLVMEYMETGSLEKLLASEPLPWDLRFRIIHETAVGMNFLHCMAPPLLHLDLKPANILLDAHYHVKISDFGLAKCNGLSHSHDLSMDGLFGTIAYLPPERIREKSRLFDTKHDVYSFAIVIWGVLTQKKPFADEKNILHIMVKVVKGHRPELPPVCRARPRACSHLIRLMQRCWQGDPRVRPTFQEITSETEDLCEKPDDEVKETAHDLDVKSPPEPRSEVVPARLKRASAPTFDNDYSLSELLSQLDSGVSQAVEGP
On to B1, for which, in data set [1], the “counts per minute at the two hour timepoint, 10 nM enzyme, 0.5 uM substrate” value is given as “about 11,000 cpm”; the “signal-to-noise ratio at the two hour timepoint, 10 nM enzyme” value is on record as “a signal-to-noise ratio of 9”; the “substrate phosphorylation, [gamma-33P]ATP, streptavidin SPA beads” value is listed as “weak phosphorylation of the following peptide, named peptide 3”. Besides, in data set [2], the “counts per minute at the two hour timepoint, 10 nM enzyme, 0.5 uM substrate” value is “about 21,000 cpm”; the “phosphorylation of biotinylated MBP by soluble GST-14171 fusion protein” value is listed as “phosphorylated MBP”; the “signal-to-noise ratio at the two hour timepoint, 10 nM enzyme” value is “a signal-to-noise ratio of 13”; the “substrate phosphorylation, [gamma-33P]ATP, streptavidin SPA beads” value was “strong phosphorylation of bovine myelin basic protein”.
